Source: article PMC2916881

What was measured:
[1] = target: human prothrombin (human); assay: SPR; BIAcore 3000, CM5 chip; human prothrombin and human fibrinogen amine-linked, Coa or vWbp injected in HBS-P (20 mM HEPES pH 7.4, 150 mM NaCl, 0.005% P20), flow 2 uL/min; 1:1 binding model with drifting baseline and local Rmax (the legend of Figure S5 tells the opposite orientation)
human fibrinogen (human) = human fibrinogen (human) (UniProt P02671); assay: as above
Sequence of UniProt P02671 (P02671 36-866, chain 1 of 3): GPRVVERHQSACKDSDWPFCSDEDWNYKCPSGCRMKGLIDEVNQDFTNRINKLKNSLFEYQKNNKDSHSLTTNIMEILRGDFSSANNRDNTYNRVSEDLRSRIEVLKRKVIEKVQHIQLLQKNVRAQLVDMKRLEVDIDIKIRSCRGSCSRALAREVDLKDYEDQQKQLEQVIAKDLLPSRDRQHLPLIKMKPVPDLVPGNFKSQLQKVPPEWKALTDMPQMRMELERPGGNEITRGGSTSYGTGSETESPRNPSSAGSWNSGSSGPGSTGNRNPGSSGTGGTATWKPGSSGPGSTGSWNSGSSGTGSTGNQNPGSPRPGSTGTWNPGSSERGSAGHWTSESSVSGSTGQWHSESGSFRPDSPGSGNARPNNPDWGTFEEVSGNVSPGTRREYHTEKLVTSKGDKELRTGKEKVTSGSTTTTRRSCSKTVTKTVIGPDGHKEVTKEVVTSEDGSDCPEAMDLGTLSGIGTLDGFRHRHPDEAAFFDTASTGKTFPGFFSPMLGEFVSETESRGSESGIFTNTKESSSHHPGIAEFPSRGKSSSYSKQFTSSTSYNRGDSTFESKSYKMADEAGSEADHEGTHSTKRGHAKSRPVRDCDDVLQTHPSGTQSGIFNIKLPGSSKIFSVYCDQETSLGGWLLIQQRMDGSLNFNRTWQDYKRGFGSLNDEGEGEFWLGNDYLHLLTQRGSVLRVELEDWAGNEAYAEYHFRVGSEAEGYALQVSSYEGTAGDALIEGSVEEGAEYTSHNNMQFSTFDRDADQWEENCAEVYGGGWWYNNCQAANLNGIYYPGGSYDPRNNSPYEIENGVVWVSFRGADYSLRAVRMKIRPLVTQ
Sequence of UniProt P02671 (P02675 45-491, chain 2 of 3, further chain): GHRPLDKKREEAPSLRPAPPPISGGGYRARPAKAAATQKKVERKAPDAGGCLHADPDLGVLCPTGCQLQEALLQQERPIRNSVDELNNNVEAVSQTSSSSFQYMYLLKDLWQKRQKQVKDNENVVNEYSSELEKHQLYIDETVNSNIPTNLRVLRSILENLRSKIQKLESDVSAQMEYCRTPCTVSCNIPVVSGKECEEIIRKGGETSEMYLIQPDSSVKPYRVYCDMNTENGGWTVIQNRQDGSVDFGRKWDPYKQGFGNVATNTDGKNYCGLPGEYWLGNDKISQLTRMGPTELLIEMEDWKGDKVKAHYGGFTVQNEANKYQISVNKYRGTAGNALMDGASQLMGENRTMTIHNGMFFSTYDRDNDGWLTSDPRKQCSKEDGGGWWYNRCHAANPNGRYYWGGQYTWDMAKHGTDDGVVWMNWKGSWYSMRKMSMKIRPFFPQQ
Sequence of UniProt P02671 (P02679 27-453, chain 3 of 3, further chain): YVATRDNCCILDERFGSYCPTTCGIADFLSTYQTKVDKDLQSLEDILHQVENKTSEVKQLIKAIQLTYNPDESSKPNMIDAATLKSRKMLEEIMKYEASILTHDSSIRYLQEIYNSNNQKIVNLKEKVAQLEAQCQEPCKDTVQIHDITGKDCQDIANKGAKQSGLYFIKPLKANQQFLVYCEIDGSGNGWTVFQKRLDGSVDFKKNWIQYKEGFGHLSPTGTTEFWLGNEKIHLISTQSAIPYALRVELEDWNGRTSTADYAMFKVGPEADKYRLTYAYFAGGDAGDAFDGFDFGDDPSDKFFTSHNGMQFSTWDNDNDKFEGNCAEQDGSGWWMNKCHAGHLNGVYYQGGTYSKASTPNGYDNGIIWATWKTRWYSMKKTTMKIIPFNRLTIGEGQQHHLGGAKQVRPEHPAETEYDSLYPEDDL

Substance | Kd [1] [nM] | Kd (human fibrinogen (human)) [nM]
S. aureus Newman Coagulase (natural protein) | 5 | 33
S. aureus Newman von Willebrand factor binding protein (natural protein) | 98 | 271
